According to patent US20170226193A1 (UNIVERSITY OF MASSACHUSETTS, published 2017):

T1: a.a. 142-273
T1 construct: not shown: N-terminal His tag and vector-derived linker of pET45-His
T1 chain: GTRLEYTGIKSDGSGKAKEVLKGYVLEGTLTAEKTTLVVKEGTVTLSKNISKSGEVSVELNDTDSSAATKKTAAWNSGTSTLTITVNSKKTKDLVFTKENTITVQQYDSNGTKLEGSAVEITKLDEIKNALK

T2: a.a. 178-273
T2 construct: not shown: N-terminal His tag and vector-derived linker of pET45-His
T2 chain: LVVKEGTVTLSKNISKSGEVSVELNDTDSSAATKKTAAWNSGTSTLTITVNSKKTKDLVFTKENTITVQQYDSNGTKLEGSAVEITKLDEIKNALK

T3: native OspA on Borrelia afzelii BO23 spirochetes (Borrelia afzelii BO23, UniProt P0A3N7 17-273)
T3 sequence: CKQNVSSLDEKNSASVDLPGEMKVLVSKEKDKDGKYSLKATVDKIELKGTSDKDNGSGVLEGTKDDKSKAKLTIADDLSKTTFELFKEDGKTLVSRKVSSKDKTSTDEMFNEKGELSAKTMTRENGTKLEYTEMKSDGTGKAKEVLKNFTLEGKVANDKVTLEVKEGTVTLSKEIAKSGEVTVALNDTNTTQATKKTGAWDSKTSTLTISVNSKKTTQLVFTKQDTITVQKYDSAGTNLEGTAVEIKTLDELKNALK

T4: a.a.18-141
T4 construct: not shown: N-terminal His tag and vector-derived linker of pET45-His
T4 chain: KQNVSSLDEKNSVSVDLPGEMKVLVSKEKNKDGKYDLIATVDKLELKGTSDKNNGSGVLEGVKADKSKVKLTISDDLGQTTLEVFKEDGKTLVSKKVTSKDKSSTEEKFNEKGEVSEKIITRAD

T5: a.a. 18-177
T5 construct: not shown: N-terminal His tag and vector-derived linker of pET45-His
T5 chain: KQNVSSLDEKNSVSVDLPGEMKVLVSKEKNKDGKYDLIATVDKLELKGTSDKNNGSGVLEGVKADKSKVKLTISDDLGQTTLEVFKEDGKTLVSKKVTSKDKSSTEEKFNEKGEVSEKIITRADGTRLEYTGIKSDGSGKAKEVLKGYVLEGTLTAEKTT

T6: a.a. 71-273
T6 construct: not shown: N-terminal His tag and vector-derived linker of pET45-His
T6 chain: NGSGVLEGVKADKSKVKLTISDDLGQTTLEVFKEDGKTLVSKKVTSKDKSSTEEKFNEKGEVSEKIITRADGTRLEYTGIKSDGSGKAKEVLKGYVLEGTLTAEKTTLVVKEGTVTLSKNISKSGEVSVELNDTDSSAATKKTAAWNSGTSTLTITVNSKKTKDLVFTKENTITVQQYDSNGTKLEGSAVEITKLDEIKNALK

T7: a.a. 106-273
T7 construct: not shown: N-terminal His tag and vector-derived linker of pET45-His
T7 chain: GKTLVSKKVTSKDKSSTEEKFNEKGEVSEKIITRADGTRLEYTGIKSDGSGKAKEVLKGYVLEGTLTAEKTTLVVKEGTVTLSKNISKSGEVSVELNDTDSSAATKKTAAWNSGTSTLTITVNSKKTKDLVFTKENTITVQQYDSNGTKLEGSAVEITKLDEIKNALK

T8: recombinant OspA of Borrelia afzelii ACA-1 (OspA-afzelii) (Borrelia afzelii ACA-1, UniProt P0A3N7 17-273)
T8 construct: also called OspA B. afzelii; not shown: N-terminal GST tag (pGEX-4T-3) or His tag (pET45-His)
T8 sequence: T3 sequence

B1: anti-OspA antibody 212-55 (antibody, V domains shown)
VH: EVQLVESGGGLVQPGGSLRLSCAASGFTFRNYWMDWVRQAPGKGLEWVANIKQDGSVKYYVDSVEGRFTISRDNAKNSLFLQMNSLRAEDTAVYYCARDGYSGYDSVGFDIWGQGTMVTVSS
VL: EIVLTQSPGTLSLSPGERATLSCRASQSVSSSYLAWYQQKPGQAPRLLISDTSSRATGIPDRFSGSGSGTDFTLTISRLEPEDFAVYYCQQYGSSPYTFGQGTKLEIK
notes: also called HuMab 212-55
B2: anti-OspA antibody 319-44 (antibody, V domains shown)
VH: EMQLVQSGAEVKKPGESLKISCKGSGYIFATYWIGWVRQMPGKGLEWMGIIYPNDSDTRYSPSFQGQVTISADKSINTAYLQWSSLKASDTAMYYCARTRWYFDLWGRGTLVTVSS
VL: not shown
notes: also called HuMab 319-44; 319-44 wild-type antibody
B3: anti-OspA antibody 857-2 (antibody, V domains shown)
VH: EVQLVQSGEEVKKPGESLKISCKGSGYKFSSYWIGWVRQMPGKGLEWMGIIFPGDSDKRYSPSFQGQVTISADKSISTVYLQWSSLKASDTAMYYCARHITTHTYRGFFDFWGQGTLVTVSS
VL: AIQLTQSPSSLSASVGDRVTITCRASQDISSALAWYQQKPGKAPKLLIYDVSSLESGVPSRFSGSGSGTDFTLTISSLQPEDFATYYCQQFNGYPHRLTFGGGTKVEIK
notes: also called HuMab 857-2
B4: anti-OspA antibody 221-7 (antibody, V domains shown)
VH: EVQLVQSGSEVKKPGESLKISCQVSGYSFTSYWIGWVRQMPGKGLERVGFIYPGDSDTRYSPSFQGQVTISADKSISTAYLQWSSLKASDTAMYYCARGILRYFDWFLDYWGQGTLVTVSS
VL: AIQLTQSPSSLSASVGDRVTITCRASQGISSGSAWYQQKPGKAPKLLIYDVSSLESGVPSRFSGSGSGTEFTLTISSLQPEDFATYYCQQFNSYLLTFGGGTKVEIK
notes: also called HuMab 221-7

What was measured:
[1] = target: T1, a.a. 142-273; assay: ELISA on plate-coated OspA protein form [panel B]
[2] = target: T2, a.a. 178-273; assay: ELISA on plate-coated OspA protein form [panel B]
[3] = target: T9, recombinant OspA of Borrelia garinii PBi (OspA-garinii) (Borrelia garinii PBi, UniProt Q09089 17-273); assay: SPR, Biacore 3000; antibody amine-coupled on CM5 chip, OspA in solution
T9 construct: also called OspA B. garinii; not shown: N-terminal GST tag (pGEX-4T-3) or His tag (pET45-His)
T9 sequence (Q09089 17-273 limits assumed): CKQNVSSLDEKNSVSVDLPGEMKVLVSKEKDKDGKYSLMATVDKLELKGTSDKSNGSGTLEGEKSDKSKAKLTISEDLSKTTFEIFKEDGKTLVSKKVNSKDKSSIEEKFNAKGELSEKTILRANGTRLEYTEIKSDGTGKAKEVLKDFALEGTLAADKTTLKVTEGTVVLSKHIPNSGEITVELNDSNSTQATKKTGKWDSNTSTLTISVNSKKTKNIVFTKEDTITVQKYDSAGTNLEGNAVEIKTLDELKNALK

[4] = target: T3, native OspA on Borrelia afzelii BO23 …; assay: cell-based or functional assay
[5] = target: native OspA on Borrelia burgdorferi B31 spirochetes (Borrelia burgdorferi B31, UniProt P0CL66 17-273); assay: cell-based or functional assay
[6] = target: T4, a.a.18-141; assay: ELISA on plate-coated OspA protein form [panel B]
[7] = target: T5, a.a. 18-177; assay: ELISA on plate-coated OspA protein form [panel B]
[8] = target: T6, a.a. 71-273; assay: ELISA on plate-coated OspA protein form [panel B]
[9] = target: T7, a.a. 106-273; assay: ELISA on plate-coated OspA protein form [panel B]
[10] = target: T10, OspA (a.a. 18-273) mutant with D249A and S250A point mutations, N-terminal His tag (Borrelia burgdorferi, UniProt P0CL66 18-273); assay: ELISA on plate-coated OspA protein form [panel B]
T10 construct: not shown: N-terminal His tag of the pET45 vector

[11] = target: T11, recombinant OspA of Borrelia burgdorferi B31 (OspA-burgdorferi) (Borrelia burgdorferi B31, UniProt P0CL66 17-273); assay: SPR, Biacore 3000; antibody amine-coupled on CM5 chip, OspA in solution
T11 construct: also called OspA B. burgdorferi; not shown: N-terminal GST tag (pGEX-4T-3) or His tag (pET45-His)

[12] = target: T8, recombinant OspA of Borrelia afzelii …; assay: as above
Description: Biacore 3000 was used to determine the affinity of HuMabs to OspA-burgdorferi, OspA-garinii and OspA-afzelii. HuMabs was captured on the surface of a Biacore chip (GE healthcare) via amine coupling (Sensor Chip CM5). The captured Mabs were exposed to various concentrations of OspA in solution. The Kₒₙ and Koff for an affinity (KD) were calculated by BIAevaluation software.

[13] = target: T11, recombinant OspA of Borrelia …; assay: SPR, Biacore 3000
[14] = target: T8, recombinant OspA of Borrelia afzelii …; assay: SPR, Biacore 3000
[15] = target: T9, recombinant OspA of Borrelia garinii …; assay: SPR, Biacore 3000
[16] = target: native OspA on Borrelia garinii PBi spirochetes (Borrelia garinii PBi, UniProt Q09089 17-273); assay: cell-based or functional assay
Sequence of native OspA on Borrelia garinii PBi spirochetes (Q09089 17-273 limits assumed): as above

| Binder | binding result [1] | binding result [2] | Kd [3] [nM] | Borreliacidal activity (EC50 (nM)) [4] [nM] | Borreliacidal activity (EC50 (nM)) [5] [nM] | binding result [6] | binding result [7] | binding result [8] | binding result [9] | binding result [10] | Kd [11] [nM] | Kd [12] [nM] | Kd [13] [nM] | Kd [14] [nM] | Kd [15] [nM] | Borreliacidal activity (EC50 (nM)) [16] [nM] |
| --- | --- | --- | --- | --- | --- | --- | --- | --- | --- | --- | --- | --- | --- | --- | --- | --- |
| B1 | binds | no binding | 480 | – | – | – | – | – | – | – | – | – | – | – | – | – |
| B2 | binds | binds | 674 | 4 | < 0.4 | no binding | no binding | binds | binds | no binding | 328 | 1200 | – | – | – | – |
| B3 | no binding | no binding | 1 | 2 | 2 | binds | binds | binds | binds | binds | 0.65 | 1.6 | ≤ 22 | ≤ 36 | ≤ 36 | 41.6 |
| B4 | no binding | no binding | 1.3 | 0.9 | < 0.4 | binds | binds | binds | no binding | binds | 0.66 | 7.8 | ≤ 22 | ≤ 36 | ≤ 36 | 6.6 |
